The record followed here is US20100311648A1.

pKi: −log10 of the molar value.

Test [1] deals with human melanocortin-4 receptor (human) (UniProt P32245). Nature of the test: [I125]-NDP-α-MSH competition, hMC4-R HEK-293 membranes.
Test [2] has as its target melanocortin-1 receptor (mouse (B-16 melanoma cells); in some instances human (hMC1-R)) (UniProt Q01727). Kind of test: [I125]-NDP-α-MSH competition, MC1-R membranes.
The target in test [3] is human melanocortin-4 receptor (human) (UniProt P32245). Kind of test: cell-based or functional assay.

melanocortin-1 receptor (mouse (B-16 melanoma cells); in some instances human (hMC1-R)), sequence (Q01727 whole entry): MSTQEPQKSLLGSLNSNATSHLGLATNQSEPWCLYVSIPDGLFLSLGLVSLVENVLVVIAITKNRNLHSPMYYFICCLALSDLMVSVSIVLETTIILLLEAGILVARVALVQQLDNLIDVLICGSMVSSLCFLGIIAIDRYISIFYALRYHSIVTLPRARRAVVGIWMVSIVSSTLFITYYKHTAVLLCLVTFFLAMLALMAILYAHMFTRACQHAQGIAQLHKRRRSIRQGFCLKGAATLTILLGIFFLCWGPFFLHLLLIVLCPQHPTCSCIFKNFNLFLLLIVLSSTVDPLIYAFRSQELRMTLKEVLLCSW
human melanocortin-4 receptor (human), sequence (P32245 whole entry): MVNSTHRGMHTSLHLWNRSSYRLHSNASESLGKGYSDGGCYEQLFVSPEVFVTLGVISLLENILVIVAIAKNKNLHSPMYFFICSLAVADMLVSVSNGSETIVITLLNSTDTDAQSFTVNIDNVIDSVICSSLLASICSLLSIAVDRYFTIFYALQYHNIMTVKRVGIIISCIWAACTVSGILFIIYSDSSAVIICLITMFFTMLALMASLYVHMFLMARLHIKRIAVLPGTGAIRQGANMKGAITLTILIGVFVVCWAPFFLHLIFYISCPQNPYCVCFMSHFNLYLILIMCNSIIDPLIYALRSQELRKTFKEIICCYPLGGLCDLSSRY

As to “Ac-Arg-cyclo(Glu-Hyp-D-Phe(4-CN)-Arg-Trp-Orn)-NH2 (peptide)”, in test [1], the negative-log Ki (pKi) (as a rule, the Ki on a negative log10 scale, so that one unit is a factor of ten) was 8.70. Besides, in test [2], the pKi is 6.06. Also, in test [3], the EC50, cAMP, 10 ng/mL Doxycycline was 0.5 nM; the Intrinsic Activity, cAMP, 0.1 ng/mL Doxycycline is 8%; the Intrinsic Activity, cAMP, 10 ng/mL Doxycycline is 93%.
As for “Ac-Arg-cyclo(Glu-Hyp-D-Phe(4-F)-Arg-Trp-Orn)-NH2 (peptide)”, the pKi in test [1] is 9.00. This substance showed a negative-log Ki (pKi) in test [2] of 7.05. In test [3], this substance displayed an EC50, cAMP, 0.1 ng/mL Doxycycline of 0.45 nM; an EC50, cAMP, 10 ng/mL Doxycycline of 0.14 nM; an Intrinsic Activity, cAMP, 0.1 ng/mL Doxycycline of 62%; an Intrinsic Activity, cAMP, 10 ng/mL Doxycycline of 95%.
“Ac-Arg-cyclo(Glu-Met(O2)-D-Phe(4-F)-Arg-Trp-Orn)-NH2 (peptide)” showed a pKi in test [1] of 8.70. The substance further showed a negative logarithm of the Ki (pKi) in test [2] of 7.48. In test [3], this substance had an EC50, cAMP, 0.1 ng/mL Doxycycline of 0.85 nM; an EC50, cAMP, 10 ng/mL Doxycycline of 0.075 nM; an Intrinsic Activity, cAMP, 0.1 ng/mL Doxycycline of 55%; an Intrinsic Activity, cAMP, 10 ng/mL Doxycycline of 91%.
“Ac-Arg-cyclo(Glu-Orn-D-Phe(2-Cl)-Arg-Trp-Orn)-OH (peptide)” showed a pKi in test [1] of 8.10. In test [2], this substance gave a pKi of 8.10. Also, in test [3], the EC50, cAMP, 0.1 ng/mL Doxycycline is 2 nM; the EC50, cAMP, 10 ng/mL Doxycycline was found to be 0.235 nM; the Intrinsic Activity, cAMP, 0.1 ng/mL Doxycycline is 74%; the Intrinsic Activity, cAMP, 10 ng/mL Doxycycline was determined as 93%.
Turning to “Ac-Arg-cyclo(Glu-Orn-D-Phe(3-Cl)-Arg-Trp-Orn)-OH (peptide)”, the negative-log Ki (pKi) in test [1] is 7.70. The same substance gave a pKi in test [2] of 7.64. In test [3], this substance registered an EC50, cAMP, 0.1 ng/mL Doxycycline of 10 nM; an EC50, cAMP, 10 ng/mL Doxycycline of 0.8 nM; an Intrinsic Activity, cAMP, 0.1 ng/mL Doxycycline of 28%; an Intrinsic Activity, cAMP, 10 ng/mL Doxycycline of 98%.
In the case of “Ac-Arg-cyclo(Glu-Thr(Bzl)-D-Phe(2-Cl)-Arg-Trp-Orn)-NH2 (peptide)”, in test [1], the pKi is 9.46. Further, the pKi in test [2] was 7.92. In addition, in test [3], the EC50, cAMP, 0.1 ng/mL Doxycycline turned out to be 0.37 nM; the EC50, cAMP, 10 ng/mL Doxycycline is 0.157 nM; the Intrinsic Activity, cAMP, 0.1 ng/mL Doxycycline amounted to 30%; the Intrinsic Activity, cAMP, 10 ng/mL Doxycycline turned out to be 93%.
In turn, “Ac-D-Arg-cyclo(Orn-His-D-Phe(2-Cl)-Arg-Trp-Glu)-NH2 (peptide)” gave a pKi in test [1] of 9.00. Further, the pKi in test [2] was 8.70. In test [3], this substance yielded an EC50, cAMP, 0.1 ng/mL Doxycycline of 0.21 nM; an EC50, cAMP, 10 ng/mL Doxycycline of 0.085 nM; an Intrinsic Activity, cAMP, 0.1 ng/mL Doxycycline of 94%; an Intrinsic Activity, cAMP, 10 ng/mL Doxycycline of 94%.
In test [1], “Ac-D-Arg-cyclo(Orn-His-D-Phe(3,4-diF)-Arg-Trp-Glu)-NH2 (peptide)” showed a negative logarithm of the Ki (pKi) of 9.60. The pKi in test [2] is 9.15. In addition, in test [3], the EC50, cAMP, 0.1 ng/mL Doxycycline came out at 0.075 nM; the EC50, cAMP, 10 ng/mL Doxycycline turned out to be 0.075 nM; the Intrinsic Activity, cAMP, 0.1 ng/mL Doxycycline stood at 56%; the Intrinsic Activity, cAMP, 10 ng/mL Doxycycline came to 92%.
In test [1], “Ac-D-Arg-cyclo(Orn-His-D-Phe(3-Cl)-Arg-Trp-Glu)-NH2 (peptide)” showed a negative logarithm of the Ki (pKi) of 9.22. This substance gave a negative logarithm of the Ki (pKi) in test [2] of 8.52. In test [3], this substance gave an EC50, cAMP, 0.1 ng/mL Doxycycline of 0.64 nM; an EC50, cAMP, 10 ng/mL Doxycycline of 0.4 nM; an Intrinsic Activity, cAMP, 0.1 ng/mL Doxycycline of 22%; an Intrinsic Activity, cAMP, 10 ng/mL Doxycycline of 95%.
Consider “Ac-D-Arg-cyclo(Orn-His-D-Phe(4-CN)-Arg-Trp-Glu)-NH2 (peptide)”, for which the pKi in test [1] is 9.22. Also, the pKi in test [2] is 8.22. In test [3], this substance registered an EC50, cAMP, 0.1 ng/mL Doxycycline of 0.325 nM; an EC50, cAMP, 10 ng/mL Doxycycline of 0.2 nM; an Intrinsic Activity, cAMP, 0.1 ng/mL Doxycycline of 31%; an Intrinsic Activity, cAMP, 10 ng/mL Doxycycline of 99%.
“Ac-D-Arg-cyclo(Orn-His-D-Phe(4-F)-Arg-Trp-Glu)-NH2 (peptide)” gave a negative-log Ki (pKi) in test [1] of 9.19. In addition, the pKi in test [2] is 9.00. In test [3], the EC50, cAMP, 0.1 ng/mL Doxycycline amounted to 0.25 nM; the EC50, cAMP, 10 ng/mL Doxycycline was 0.095 nM; the Intrinsic Activity, cAMP, 0.1 ng/mL Doxycycline was determined as 89%; the Intrinsic Activity, cAMP, 10 ng/mL Doxycycline was determined as 100%.
